# In article PMC11399405:
# B1: IGR1729/1728 and flanking RNA (55 nt) (ssRNA)
# RNA: GCUAGUGCAGAUGCUCCAGUUAAAAAAGAGUAGGAGGUAGAGGAAAUGUCUCAAU
# Columns and labels:
# [1] = molecular target: SPD_1558 (Streptococcus pneumoniae D39, UniProt A0A0H2ZMV6 1-103); assay: EMSA
# [2] = molecular target: SPD_1777 (Streptococcus pneumoniae D39, UniProt A0A0H2ZNW3 1-317); assay: EMSA
binder,measurement,setting,value
B1,binding result,[1],binds
same,binding result,[2],binds
